{"source": "paper PMC11856660", "about": "(PLOS Pathogens, 2025)", "molecular_target": "the molecule itself", "assay": "[…] (25 mM HEPES pH 8, 300 mM NaCl, 10% glycerol, 1 mM TCEP); […]; 20 °C; […]", "data": [{"protein": "HCoV-229E nsp15 protein, wild type (recombinant, hexameric) (enzyme, source: T7 Express E. coli, purified (Ni-NTA, SEC)) GLENIAFNVVNKGSFVGADGELPVAISGDKVFVRDGNTDNLVFVNKTSLPTNIAFELFAKRKVGLTPPLSILKNLGVVATYKFVLWDYEAERPLTSFTKSVCGYTDFAEDVCTCYDNSIQGSYERFTLSTNAVLFSATAVKTGGKSLPAIKLNFGMLNGNAIATVKSEDGNIKNINWFVYVRKDGKPVDHYDGFYTQGRNLQDFLPRSTMEEDFLNMDIGVFIQKYGLEDFNFEHVVYGDVSKTTLGGLHLLISQVRLSKMGILKAEEFVAASDITLKCCTVTYLNDPSSKTVCTYMDLLLDDFVSVLKSLDLTVVSKVHEVIIDNKPWRWMLWCKDNAVATFYPQLQ", "values": [{"measurement": "stoichiometry N", "result": 6}]}]}
